Patent US10076652B2, “Method for ultrasound-mediated delivery system to monitor molecular penetration” (CHANG GUNG UNIVERSITY, priority 2015, dated 2018)

Assay: Molecular penetration into the brain after focused ultrasound (FUS) induced BBB opening
Conditions: in vivo
Source text: First, there are three testing substances, and their molecular size spreading from 1 to nearly 150 kDa are employed in second procedure. Three substances are Gd-DTPA, Evans blue, and Bevacizumab.
FIGS. 10A and 10B are about that selected the UEI ranging of 0.65 and 1.25 for testing, and under testing the center frequency of only 0.4 MHz is employed. FIG. 10A illustrates the measured molecular penetration (molecule 1-3) of different exposure conditions (UEI set to 0, 0.65, and 1.25). FIG. 10B illustrates the measured molecular penetration (molecule 1-3) of different molecular ranges (UEI set to 0, 0.65, and 1.25). These measurement results will be compared with the final predict results.
The molecule 1 has the highest penetration because of its small molecular size (1 kDa; the predicted concentration range is 1.7 to 6.2 μM during UEI ranging of 0.65-1.25). […]
Integrating of the UEI and the UII by above uniform and calibrated method steps, in this embodiment, it is possible to examine the three molecular penetrations reflecting to the four imaging indexes with different UEIs. Another experiment is conducted, the three molecular penetrations was measured (shown in FIG. 10), and comparing to the quantified predict results of the UEI. The correlation of UEI is evaluated under the UII.

Molecule | predicted concentration range (molecular penetration) [µM]
Bevacizumab [molecule 3] | 0.02 to 2.1
Cc1cc(-c2ccc(/N=N/c3ccc4c(S(=O)(=O)O)cc(S(=O)(=O)O)c(N)c4c3O)c(C)c2)ccc1/N=N/c1ccc2c(S(=O)(=O)O)cc(S(=O)(=O)O)c(N)c2c1O [molecule 2, Evans blue] | 0.7 to 3.1
